Experimental data as given in the Human Domainome abundance scans (Beltran et al. 2025).
± gives the uncertainty stated by the source.

B1: Histone H1t, residues 44 to 112; numbered along this chain, P22492 (parent)
chain: VSKLITEALSVSQERVGMSLVALKKALAAAGYDVEKNNSRIKLSLKSLVNKGILVQTRGTGASGSFKLS

Variants of: B1
Experiment: abundance fitness (aPCA) (normalised: wild type 0, dead -1); higher = more abundant; growth selection in yeast, the domain comes from the species named
Details: Homo sapiens

Row | Variant | abundance fitness
1 | VSKLITEALSVSQERVGMSLVAKKKALAAAGYDVEKNNSRIKLSLKSLVNKGILVQTRGTGASGSFKLS | -1.12 ± 0.088
2 | VSKLITEALSVSQERVGMSLVAEKKALAAAGYDVEKNNSRIKLSLKSLVNKGILVQTRGTGASGSFKLS | -0.47 ± 0.14
3 | VSKLITEALSVSQERVGMSLVAPKKALAAAGYDVEKNNSRIKLSLKSLVNKGILVQTRGTGASGSFKLS | -0.885 ± 0.099
4 | VSKLITEALSVSQERVGMSLVACKKALAAAGYDVEKNNSRIKLSLKSLVNKGILVQTRGTGASGSFKLS | -0.363 ± 0.077
5 | VSKLITEALSVSQERVGMSLVAGKKALAAAGYDVEKNNSRIKLSLKSLVNKGILVQTRGTGASGSFKLS | -1.27 ± 0.2
6 | VSKLITEALSVSQERVGMSLVAAKKALAAAGYDVEKNNSRIKLSLKSLVNKGILVQTRGTGASGSFKLS | -0.384 ± 0.094
7 | VSKLITEALSVSQERVGMSLVAFKKALAAAGYDVEKNNSRIKLSLKSLVNKGILVQTRGTGASGSFKLS | -0.197 ± 0.038
8 | VSKLITEALSVSQERVGMSLVAIKKALAAAGYDVEKNNSRIKLSLKSLVNKGILVQTRGTGASGSFKLS | -0.087 ± 0.05
9 | VSKLITEALSVSQERVGMSLVAHKKALAAAGYDVEKNNSRIKLSLKSLVNKGILVQTRGTGASGSFKLS | -1.05 ± 0.093
10 | VSKLITEALSVSQERVGMSLVAMKKALAAAGYDVEKNNSRIKLSLKSLVNKGILVQTRGTGASGSFKLS | -0.226 ± 0.038
11 | VSKLITEALSVSQERVGMSLVANKKALAAAGYDVEKNNSRIKLSLKSLVNKGILVQTRGTGASGSFKLS | -0.95 ± 0.13
12 | VSKLITEALSVSQERVGMSLVADKKALAAAGYDVEKNNSRIKLSLKSLVNKGILVQTRGTGASGSFKLS | -1.22 ± 0.27
13 | VSKLITEALSVSQERVGMSLIALKKALAAAGYDVEKNNSRIKLSLKSLVNKGILVQTRGTGASGSFKLS | -0.067 ± 0.028
14 | VSKLITEALSVSQERVGMSLWALKKALAAAGYDVEKNNSRIKLSLKSLVNKGILVQTRGTGASGSFKLS | -0.16 ± 0.096
15 | VSKLITEALSVSQERVGMSLQALKKALAAAGYDVEKNNSRIKLSLKSLVNKGILVQTRGTGASGSFKLS | 0.181 ± 0.055
16 | VSKLITEALSVSQERVGMSLCALKKALAAAGYDVEKNNSRIKLSLKSLVNKGILVQTRGTGASGSFKLS | -0.164 ± 0.11
17 | VSKLITEALSVSQERVGMSLEALKKALAAAGYDVEKNNSRIKLSLKSLVNKGILVQTRGTGASGSFKLS | 0.038 ± 0.14
18 | VSKLITEALSVSQERVGMSLDALKKALAAAGYDVEKNNSRIKLSLKSLVNKGILVQTRGTGASGSFKLS | 0 ± 0.093
19 | VSKLITEALSVSQERVGMSLPALKKALAAAGYDVEKNNSRIKLSLKSLVNKGILVQTRGTGASGSFKLS | -0.199 ± 0.071
20 | VSKLITEALSVSQERVGMSLAALKKALAAAGYDVEKNNSRIKLSLKSLVNKGILVQTRGTGASGSFKLS | 0.091 ± 0.1
21 | VSKLITEALSVSQERVGMSLSALKKALAAAGYDVEKNNSRIKLSLKSLVNKGILVQTRGTGASGSFKLS | 0.018 ± 0.04
22 | VSKLITEALSVSQERVGMSLMALKKALAAAGYDVEKNNSRIKLSLKSLVNKGILVQTRGTGASGSFKLS | -0.037 ± 0.029
23 | VSKLITEALSVSQERVGMSLLALKKALAAAGYDVEKNNSRIKLSLKSLVNKGILVQTRGTGASGSFKLS | -0.062 ± 0.027
24 | VSKLITEALSVSQERVGMSLFALKKALAAAGYDVEKNNSRIKLSLKSLVNKGILVQTRGTGASGSFKLS | -0.142 ± 0.026
25 | VSKLITEALSVSQERVGMSLNALKKALAAAGYDVEKNNSRIKLSLKSLVNKGILVQTRGTGASGSFKLS | 0.123 ± 0.03
26 | VSKLITEALSVSQERVGMSLHALKKALAAAGYDVEKNNSRIKLSLKSLVNKGILVQTRGTGASGSFKLS | 0.061 ± 0.044

Row | Variant | abundance fitness
27 | VSKLITEALSVSQERVGMSLRALKKALAAAGYDVEKNNSRIKLSLKSLVNKGILVQTRGTGASGSFKLS | 0.113 ± 0.082
28 | VSKLITEALSVSQERVGMSLYALKKALAAAGYDVEKNNSRIKLSLKSLVNKGILVQTRGTGASGSFKLS | -0.207 ± 0.028
29 | VSKLITEALSVSQERVGMSWVALKKALAAAGYDVEKNNSRIKLSLKSLVNKGILVQTRGTGASGSFKLS | -0.008 ± 0.038
30 | VSKLITEALSVSQERVGMSQVALKKALAAAGYDVEKNNSRIKLSLKSLVNKGILVQTRGTGASGSFKLS | -0.5 ± 0.065
31 | VSKLITEALSVSQERVGMSEVALKKALAAAGYDVEKNNSRIKLSLKSLVNKGILVQTRGTGASGSFKLS | -0.046 ± 0.069
32 | VSKLITEALSVSQERVGMSSVALKKALAAAGYDVEKNNSRIKLSLKSLVNKGILVQTRGTGASGSFKLS | -0.561 ± 0.036
33 | VSKLITEALSVSQERVGMSGVALKKALAAAGYDVEKNNSRIKLSLKSLVNKGILVQTRGTGASGSFKLS | -0.412 ± 0.045
34 | VSKLITEALSVSQERVGMSKVALKKALAAAGYDVEKNNSRIKLSLKSLVNKGILVQTRGTGASGSFKLS | -0.239 ± 0.052
35 | VSKLITEALSVSQERVGMSTVALKKALAAAGYDVEKNNSRIKLSLKSLVNKGILVQTRGTGASGSFKLS | -0.351 ± 0.046
36 | VSKLITEALSVSQERVGMSYVALKKALAAAGYDVEKNNSRIKLSLKSLVNKGILVQTRGTGASGSFKLS | 0.01 ± 0.035
37 | VSKLITEALSVSQERVGMSNVALKKALAAAGYDVEKNNSRIKLSLKSLVNKGILVQTRGTGASGSFKLS | -0.724 ± 0.061
38 | VSKLITEALSVSQERVGMSDVALKKALAAAGYDVEKNNSRIKLSLKSLVNKGILVQTRGTGASGSFKLS | -0.346 ± 0.073
39 | VSKLITEALSVSQERVGMSRVALKKALAAAGYDVEKNNSRIKLSLKSLVNKGILVQTRGTGASGSFKLS | -0.537 ± 0.045
40 | VSKLITEALSVSQERVGMSIVALKKALAAAGYDVEKNNSRIKLSLKSLVNKGILVQTRGTGASGSFKLS | -0.026 ± 0.036
41 | VSKLITEALSVSQERVGMSCVALKKALAAAGYDVEKNNSRIKLSLKSLVNKGILVQTRGTGASGSFKLS | -0.205 ± 0.038
42 | VSKLITEALSVSQERVGMSAVALKKALAAAGYDVEKNNSRIKLSLKSLVNKGILVQTRGTGASGSFKLS | -0.234 ± 0.054
43 | VSKLITEALSVSQERVGMSPVALKKALAAAGYDVEKNNSRIKLSLKSLVNKGILVQTRGTGASGSFKLS | -0.841 ± 0.06
44 | VSKLITEALSVSQERVGMSFVALKKALAAAGYDVEKNNSRIKLSLKSLVNKGILVQTRGTGASGSFKLS | 0.013 ± 0.032
45 | VSKLITEALSVSQERVGMSMVALKKALAAAGYDVEKNNSRIKLSLKSLVNKGILVQTRGTGASGSFKLS | -0.022 ± 0.041
46 | VSKLITEALSVSQERVGMSVVALKKALAAAGYDVEKNNSRIKLSLKSLVNKGILVQTRGTGASGSFKLS | -0.048 ± 0.036
47 | VSKLITEALSVSQERVGMSHVALKKALAAAGYDVEKNNSRIKLSLKSLVNKGILVQTRGTGASGSFKLS | -0.465 ± 0.057
48 | VSKLITEALSVSQERVGMLLVALKKALAAAGYDVEKNNSRIKLSLKSLVNKGILVQTRGTGASGSFKLS | -0.111 ± 0.03
49 | VSKLITEALSVSQERVGMYLVALKKALAAAGYDVEKNNSRIKLSLKSLVNKGILVQTRGTGASGSFKLS | -0.381 ± 0.048
50 | VSKLITEALSVSQERVGMPLVALKKALAAAGYDVEKNNSRIKLSLKSLVNKGILVQTRGTGASGSFKLS | -0.324 ± 0.073
51 | VSKLITEALSVSQERVGMTLVALKKALAAAGYDVEKNNSRIKLSLKSLVNKGILVQTRGTGASGSFKLS | -0.056 ± 0.051
52 | VSKLITEALSVSQERVGMNLVALKKALAAAGYDVEKNNSRIKLSLKSLVNKGILVQTRGTGASGSFKLS | -0.088 ± 0.085

Row | Variant | abundance fitness
53 | VSKLITEALSVSQERVGMFLVALKKALAAAGYDVEKNNSRIKLSLKSLVNKGILVQTRGTGASGSFKLS | -0.043 ± 0.039
54 | VSKLITEALSVSQERVGMMLVALKKALAAAGYDVEKNNSRIKLSLKSLVNKGILVQTRGTGASGSFKLS | -0.153 ± 0.039
55 | VSKLITEALSVSQERVGMWLVALKKALAAAGYDVEKNNSRIKLSLKSLVNKGILVQTRGTGASGSFKLS | -0.145 ± 0.051
56 | VSKLITEALSVSQERVGMVLVALKKALAAAGYDVEKNNSRIKLSLKSLVNKGILVQTRGTGASGSFKLS | -0.11 ± 0.042
57 | VSKLITEALSVSQERVGMGLVALKKALAAAGYDVEKNNSRIKLSLKSLVNKGILVQTRGTGASGSFKLS | 0.147 ± 0.061
58 | VSKLITEALSVSQERVGMQLVALKKALAAAGYDVEKNNSRIKLSLKSLVNKGILVQTRGTGASGSFKLS | -0.171 ± 0.054
59 | VSKLITEALSVSQERVGMRLVALKKALAAAGYDVEKNNSRIKLSLKSLVNKGILVQTRGTGASGSFKLS | -0.224 ± 0.055
60 | VSKLITEALSVSQERVGMKLVALKKALAAAGYDVEKNNSRIKLSLKSLVNKGILVQTRGTGASGSFKLS | -0.021 ± 0.049
61 | VSKLITEALSVSQERVGMDLVALKKALAAAGYDVEKNNSRIKLSLKSLVNKGILVQTRGTGASGSFKLS | 0.08 ± 0.08
62 | VSKLITEALSVSQERVGMELVALKKALAAAGYDVEKNNSRIKLSLKSLVNKGILVQTRGTGASGSFKLS | -0.558 ± 0.083
63 | VSKLITEALSVSQERVGMSLVDLKKALAAAGYDVEKNNSRIKLSLKSLVNKGILVQTRGTGASGSFKLS | -0.118 ± 0.34
64 | VSKLITEALSVSQERVGMSLVQLKKALAAAGYDVEKNNSRIKLSLKSLVNKGILVQTRGTGASGSFKLS | -0.003 ± 0.16
65 | VSKLITEALSVSQERVGMSLVTLKKALAAAGYDVEKNNSRIKLSLKSLVNKGILVQTRGTGASGSFKLS | -0.305 ± 0.22
66 | VSKLITEALSVSQERVGMSLVNLKKALAAAGYDVEKNNSRIKLSLKSLVNKGILVQTRGTGASGSFKLS | -0.262 ± 0.33
67 | VSKLITEALSVSQERVGMSLVGLKKALAAAGYDVEKNNSRIKLSLKSLVNKGILVQTRGTGASGSFKLS | -0.45 ± 0.3
68 | VSKLITEALSVSQERVGMSLVSLKKALAAAGYDVEKNNSRIKLSLKSLVNKGILVQTRGTGASGSFKLS | 0.051 ± 0.098
69 | VSKLITEALSVSQERVGMSLVELKKALAAAGYDVEKNNSRIKLSLKSLVNKGILVQTRGTGASGSFKLS | -0.801 ± 0.36
70 | VSKLITEALSVSQERVGMSLVFLKKALAAAGYDVEKNNSRIKLSLKSLVNKGILVQTRGTGASGSFKLS | -0.413 ± 0.07
71 | VSKLITEALSVSQERVGMSLVLLKKALAAAGYDVEKNNSRIKLSLKSLVNKGILVQTRGTGASGSFKLS | -0.393 ± 0.059
72 | VSKLITEALSVSQERVGMSLVWLKKALAAAGYDVEKNNSRIKLSLKSLVNKGILVQTRGTGASGSFKLS | -0.101 ± 0.3
73 | VSKLITEALSVSQERVGMSLVILKKALAAAGYDVEKNNSRIKLSLKSLVNKGILVQTRGTGASGSFKLS | -0.699 ± 0.11
74 | VSKLITEALSVSQERVGMSLVCLKKALAAAGYDVEKNNSRIKLSLKSLVNKGILVQTRGTGASGSFKLS | -0.034 ± 0.18
75 | VSKLITEALSVSQERVGMSLVHLKKALAAAGYDVEKNNSRIKLSLKSLVNKGILVQTRGTGASGSFKLS | -0.158 ± 0.23
76 | VSKLITEALSVSQERVGMSLVKLKKALAAAGYDVEKNNSRIKLSLKSLVNKGILVQTRGTGASGSFKLS | -0.192 ± 0.24
77 | VSKLITEALSVSQERVGMSLVYLKKALAAAGYDVEKNNSRIKLSLKSLVNKGILVQTRGTGASGSFKLS | -0.034 ± 0.1
78 | VSKLITEALSVSQERVGMSLVVLKKALAAAGYDVEKNNSRIKLSLKSLVNKGILVQTRGTGASGSFKLS | -0.358 ± 0.11
